Reference: patent publication US20140017242A1, “ANTI-BRADYKININ B2 RECEPTOR (BKB2R) MONOCLONAL ANTIBODY” (Diamedica, Inc., priority 2010, published 2014)
Where no end group is shown, it is not given here.

Tests used:
ZDF fa/fa rats [1] = test: 21-day ZDF fa/fa study: oral glucose tolerance test (blood glucose, plasma insulin); format: in vivo, rat; conditions: 10 mg/kg p.o. 1×/daily, day 21
Protocol: (§1) Animals. Male ZDF fa/fa rats were obtained from CRL (Kingston, N.Y.). Upon arrival, rats were seven weeks of age. The rats were housed individually per cage in a room with a photo cycle of 12 hours of light and 12 hours of dark and an ambient temperature of 70-72° F. and fed on regular rodent diet and water ad libitum. At the age of eleven weeks, rats were divided into six groups (Table 5) of eight rats per group based on fasting blood glucose levels. A sub-group of four rats per group was maintained in parallel to the main groups and was dosed similarly for twenty-one days for a hyperinsulinemic-euglycemic clamp study. […]
(§2) An oral glucose tolerance test (OGTT) was performed on Day 0, 7, 14 and 21 for each group of the study. Plasma samples were collected at each time point during OGTT to also measure insulin levels. Body weight, food and water intake were measured twice a week. Blood pressure and heart rates were monitored on Day 0, 7, 14 and 21 using a non-invasive tail cuff method (with five readings per rat taken and then averaged). Fasting serum samples were collected on Day 0, 7, 14 and 21 before OGTT for determination of triglyceride and total cholesterol level. Urine samples were collected on Day 7 and 14 for the determination of glycosuria. Glycated (Glycosylated) hemoglobin (HbA1c) was measured at the end of the study. Assay kits for these studies were as presented in Table 6, and were used according to the suppliers' instructions.
OGTTs were performed on Day 0, 7, 14 and Day 21. Rats were fasted overnight and fasted blood glucose levels were measured (t=0 min), and then each rat was given a single 1.5 ml dose of glucose solution (2 g/kg body weight of D-(+)-glucose (G7528, Sigma) solubilized in deionized water) administered by oral gavage. […] At each time point of an OGGT approximately 50-60 μl of blood were collected and processed for plasma to measure insulin levels.
Plasma Collection. On days 0, 7, 14 and 21 during an OGTT test, blood samples were collected from the rats at each time point (0, 15, 30, 60, 90 and 120 minutes) into tubes containing lithium heparin (BD Biosciences, USA) by tail nip and kept on ice. The samples were then centrifuged at 4° C. for plasma separation and the plasma supernatants were transferred into 0.5 ml Eppendorf™ tubes by pipette and stored at −80° C. for the analysis of insulin levels.

ZDF fa/fa rats [2] = test: 21-day ZDF fa/fa study: fasting blood glucose; format: in vivo, rat; conditions: 10 mg/kg p.o. 1×/daily, day 21; baseline 116.5+/−25.8
Protocol: as §1, §2
Fasting blood glucose levels were measured on Day 0, 7, 14 and 21.
(§3) The mean change in fasting blood glucose (mg/dL), serum cholesterol (mg/dL) and systolic blood pressure (mm Hg) from baseline (Day 0) to Day 21 was compared between the high-dose (5F12G1, 0.2 mg/kg) and negative control (MG2b-57, 0.2 mg/kg) groups using an analysis of covariance to adjust for baseline levels. The mean HbA1c percentage in high-dose (5F12G1, 0.2 mg/kg) rats was compared to the mean HbA1c percentage for negative control (MG2b-57, 0.2 mg/kg) rats using an unequal-variance, independent two-sample t-test. A significance level of a=0.05 was used for all tests, and all analyses were conducted using SAS statistical software (vs. 9.2, Cary, N.C., U.S.A.).

ZDF fa/fa rats [3] = test: 21-day ZDF fa/fa study: serum total cholesterol and triglyceride; format: in vivo, rat; conditions: 10 mg/kg p.o. 1×/daily, day 21
Protocol: as §1, §2, §3

ZDF fa/fa rats [4] = test: 21-day ZDF fa/fa study: glycated hemoglobin HbA1c; format: in vivo, rat; conditions: 10 mg/kg p.o. 1×/daily, day 21
Protocol: as §1, §2
The mean change in fasting blood glucose (mg/dL), serum cholesterol (mg/dL) and systolic blood pressure (mm Hg) from baseline ([…]) and negative control (MG2b-57, 0.2 mg/kg) groups using an analysis of covariance to adjust for baseline levels. […] A significance level of a=0.05 was used for all tests, and all analyses were conducted using SAS statistical software (vs. 9.2, Cary, N.C., U.S.A.).

ZDF fa/fa rats [5] = test: 21-day ZDF fa/fa study: urinary glucose (glycosuria); format: in vivo, rat; conditions: 10 mg/kg p.o. 1×/daily, day 14
[6] = biological target: T1, human BKB2R-derived epitope peptide (SEQ ID NO:73), PEG-biotin (human, also: PEG-biotin, site not given here); test: BLI (Octet), peptide-PEG-biotin on streptavidin sensor, antibody 250 nM
T1 construct: also called immunogenic human BKB2R peptide fragment
T1 peptide: KEYSDEGHNVTAC
Protocol: (§4) For the Octet study, antibodies were analyzed by kinetic titration of the antibodies. Antibodies were prepared in kinetic buffer (0.001 M phosphate buffered saline (NaCl 0.0138 M; KCl-0.00027 M); pH 7.4, at 25° C., 0.1 mg/ml BSA, 0.002% Tween and 0.005% Sodium Azide) followed by 1:2 serial dilutions.
(§5) Sensor Prep: Streptavidin biosensors (FortéBio Inc, Menlo Park, Calif.) were coated by incubation in a solution containing a peptide ([…]-PEG-biotin) (Biosyn, Lewisville, Tex.) at 50 μg/ml (300 seconds/1000 rpm shaking). 96 well half-volume plates were used for testing. 90 μl of sample was plated per well. Sensors were allowed to equilibrate to baseline in kinetic buffer (60 seconds/1000 rpm). The sensors were then placed into the various antibody dilutions to allow binding (association) to the probe for 500 seconds/1000 rpm, and measurements were taken. The sensors were then moved into kinetic buffer without antibody for dissociation (500 seconds/1000 rpm), and measurements were taken. Octet system software calculated kinetic constants for on rate/off rate/affinity.
(§6) For test humanized monoclonal antibodies, the highest concentration used was 500 nM followed by 1:2 dilutions. Each concentration was tested twice. The HC and LC represented the mouse original 5F12G1 VH and VL sequences.

[7] = biological target: T1, human BKB2R-derived epitope peptide …; test: BLI (Octet), peptide-PEG-biotin on streptavidin sensor, antibody 500 nM
Protocol: as §4, §5, §6

`N[C@@H](CC(=O)N1CCn2c(nnc2C(F)(F)F)C1)Cc1cc(F)c(F)cc1F` [sitagliptin, reference compound] was tested, and the “AUC of blood glucose during OGTT” value (ZDF fa/fa rats [1]) was 53765.75 ± 2281.45 mg/dL (min), the “blood glucose level at 30 minutes of the OGTT” value (ZDF fa/fa rats [1]) was 488 mg/dL and the “blood glucose level at the start of the OGTT” value (ZDF fa/fa rats [1]) was 228 mg/dL. The fasting insulin level (ZDF fa/fa rats [1]) was 10 ± 3.5 ng/mL, the “insulin level at 15 minutes of the OGTT” value (ZDF fa/fa rats [1]) was 15 ± 4 ng/mL and the “fasting blood glucose level” value (ZDF fa/fa rats [2]) was 247 ± 14 mg/dL. The serum cholesterol (ZDF fa/fa rats [3]) was 170 ± 14 mg/dL, the “percent glycosylated hemoglobin A1c (HbA1c)” value (ZDF fa/fa rats [4]) was 8.8+/−0.4% and the urine glucose level (ZDF fa/fa rats [5]) was “elevated urine glucose”.

B1: humanized anti-BKB2R antibody L1/H2 (antibody, human IgG2, kappa, V domains shown)
VH: EVQLVESGGGLVQPGGSLRLSCVASGFTFSDYWMSWVRQAPGKGLEWVAEIRLKSDNYATHYAESVKGRFTISRDDAKNSLYLQMNSLRAEDTAVYYCTRDYYAMEYWGQGTLVTVSS
VL: DIVMTQSPLSLPVTPGEPASISCRSSQTIVHSNGKTYLEWYLQKPGQSPQLLIYKVSNRFSGVPDRFSGSGSGTDFTLKISRVEAEDVGVYYCFQASHVPYTFGQGTKLEIKR
For B1, the Kd [6] was 2050 nM, the “Max Response” value [6] was 0.174 and the koff [6] was 0.719 s⁻¹. The kon [6] was 350000 M⁻¹ s⁻¹, the Kd [7] was 403 nM and the “Max Response” value [7] was 0.161. For the same molecule, the koff [7] was 0.976 s⁻¹ and the kon [7] was 2.43e+06 M⁻¹ s⁻¹.

B2: chimeric/humanized anti-BKB2R antibody L1/HC (antibody, human IgG2, V domains shown)
VH: EVKLEESGGGLVQPGGSMKLSCVVSGFTFSDYWMSWVRHSPEMGLEWVAEIRLKSDNYATHYAESVKGRFTISRDDSKSRLYLQINSLRGEDTGIYYCTRDYYAMEYWGQGTSVTVSS
VL: DIVMTQSPLSLPVTPGEPASISCRSSQTIVHSNGKTYLEWYLQKPGQSPQLLIYKVSNRFSGVPDRFSGSGSGTDFTLKISRVEAEDVGVYYCFQASHVPYTFGQGTKLEIKR
notes: not shown: human IgG2 constant region
For B2, the Kd [6] was 3040 nM, the “Max Response” value [6] was 0.148 and the koff [6] was 0.728 s⁻¹. The kon [6] was 239000 M⁻¹ s⁻¹, the Kd [7] was 3980 nM and the “Max Response” value [7] was 0.194. It also gave a koff [7] of 2.16 s⁻¹ and a kon [7] of 543000 M⁻¹ s⁻¹.

B3: humanized anti-BKB2R antibody L2/H1 (antibody, human IgG2, kappa, V domains shown)
VH: EVQLVESGGGLVQPGGSLRLSCAASGFTFSDYWMSWVRQAPGKGLEWVAEIRLKSDNYATHYAESVKGRFTISRDNAKNSLYLQMNSLRAEDTAVYYCTRDYYAMEYWGQGTLVTVSS
VL: DIVMTQSPLSLPVTPGEPASISCRSSQTIVHSNGKTYLEWYLQKPGQSPQLLIYKVSNRFSGVPDRFSGSGSGTEFTLKISRVEAEDVGVYYCFQASHVPYTFGQGTKLEIKR
In the case of B3, the Kd [6] is reported as 20.3 nM, the “Max Response” value [6] is reported as 0.18 and the koff [6] is reported as 0.00438 s⁻¹. The kon [6] was 216000 M⁻¹ s⁻¹, the Kd [7] was 4.19 nM and the “Max Response” value [7] was 0.172. It also gave a koff [7] of 0.00507 s⁻¹ and a kon [7] of 1.21e+06 M⁻¹ s⁻¹.

B4: chimeric/humanized anti-BKB2R antibody L2/HC (antibody, human IgG2, V domains shown)
VH: EVKLEESGGGLVQPGGSMKLSCVVSGFTFSDYWMSWVRHSPEMGLEWVAEIRLKSDNYATHYAESVKGRFTISRDDSKSRLYLQINSLRGEDTGIYYCTRDYYAMEYWGQGTSVTVSS
VL: DIVMTQSPLSLPVTPGEPASISCRSSQTIVHSNGKTYLEWYLQKPGQSPQLLIYKVSNRFSGVPDRFSGSGSGTEFTLKISRVEAEDVGVYYCFQASHVPYTFGQGTKLEIKR
notes: as for B2
With B4 the Kd [6] was 337 nM, the “Max Response” value [6] was 0.204 and the koff [6] was 0.732 s⁻¹. The kon [6] was 2.17e+06 M⁻¹ s⁻¹, the Kd [7] was 4530 nM and the “Max Response” value [7] was 0.143. It also gave a koff [7] of 0.655 s⁻¹ and a kon [7] of 145000 M⁻¹ s⁻¹.

B5: humanized anti-BKB2R antibody L2/H2 (antibody, human IgG2, kappa, V domains shown)
VH: EVQLVESGGGLVQPGGSLRLSCVASGFTFSDYWMSWVRQAPGKGLEWVAEIRLKSDNYATHYAESVKGRFTISRDDAKNSLYLQMNSLRAEDTAVYYCTRDYYAMEYWGQGTLVTVSS
VL: DIVMTQSPLSLPVTPGEPASISCRSSQTIVHSNGKTYLEWYLQKPGQSPQLLIYKVSNRFSGVPDRFSGSGSGTEFTLKISRVEAEDVGVYYCFQASHVPYTFGQGTKLEIKR
notes: also called H2/L2
In the case of B5, the Kd [6] is reported as 20.4 nM, the “Max Response” value [6] is reported as 0.171 and the koff [6] is reported as 0.0359 s⁻¹. The kon [6] was 1.76e+06 M⁻¹ s⁻¹, the Kd [7] was 22.5 nM and the “Max Response” value [7] was 0.171. For the same molecule, the koff [7] was 0.0223 s⁻¹ and the kon [7] was 992000 M⁻¹ s⁻¹.
